Assay results published in article PMC8897274 (Structure (London, England : 1993), 2021).
Positions count from the first letter of the chain named. Ends that are not written are not given here.

T1: PCNA_(1–2-3) heterotrimer of S. solfataricus (S. solfataricus, UniProt P57766 1-249; Q97Z84 1-245; P57765 1-244)
T1 sequence 1: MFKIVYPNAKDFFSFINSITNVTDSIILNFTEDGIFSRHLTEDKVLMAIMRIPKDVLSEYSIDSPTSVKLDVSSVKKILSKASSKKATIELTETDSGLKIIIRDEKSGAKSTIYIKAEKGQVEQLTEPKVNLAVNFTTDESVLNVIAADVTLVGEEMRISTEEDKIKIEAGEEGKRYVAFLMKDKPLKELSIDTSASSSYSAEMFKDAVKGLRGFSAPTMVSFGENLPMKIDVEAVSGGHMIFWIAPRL
T1 sequence 2: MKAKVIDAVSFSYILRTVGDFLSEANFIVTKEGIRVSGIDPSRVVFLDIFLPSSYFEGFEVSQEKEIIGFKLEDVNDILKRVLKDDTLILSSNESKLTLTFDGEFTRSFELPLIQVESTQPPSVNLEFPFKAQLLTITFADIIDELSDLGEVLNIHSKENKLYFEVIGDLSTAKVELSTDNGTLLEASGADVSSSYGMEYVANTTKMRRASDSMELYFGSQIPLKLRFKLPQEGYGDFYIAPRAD
T1 sequence 3: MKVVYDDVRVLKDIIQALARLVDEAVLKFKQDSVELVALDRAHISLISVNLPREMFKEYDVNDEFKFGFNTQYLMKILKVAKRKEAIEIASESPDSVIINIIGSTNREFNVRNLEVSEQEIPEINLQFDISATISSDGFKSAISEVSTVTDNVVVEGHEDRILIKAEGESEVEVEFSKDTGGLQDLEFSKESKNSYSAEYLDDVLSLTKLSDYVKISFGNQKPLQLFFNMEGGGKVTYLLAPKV

T2: PCNA1–2 heterodimer of S. solfataricus (S. solfataricus, UniProt P57766 1-249; Q97Z84 1-245)
T2 sequence 1: T1 sequence 1
T2 sequence 2: T1 sequence 2

T3: DNA ligase (Lig);PCNA1-PCNA2-PCNA3 heterotrimer (S. solfataricus;S. solfataricus, UniProt Q980T8;P57766;Q97Z84;P57765 1-601;1-249;1-245;1-244, |)
T3 sequence 1: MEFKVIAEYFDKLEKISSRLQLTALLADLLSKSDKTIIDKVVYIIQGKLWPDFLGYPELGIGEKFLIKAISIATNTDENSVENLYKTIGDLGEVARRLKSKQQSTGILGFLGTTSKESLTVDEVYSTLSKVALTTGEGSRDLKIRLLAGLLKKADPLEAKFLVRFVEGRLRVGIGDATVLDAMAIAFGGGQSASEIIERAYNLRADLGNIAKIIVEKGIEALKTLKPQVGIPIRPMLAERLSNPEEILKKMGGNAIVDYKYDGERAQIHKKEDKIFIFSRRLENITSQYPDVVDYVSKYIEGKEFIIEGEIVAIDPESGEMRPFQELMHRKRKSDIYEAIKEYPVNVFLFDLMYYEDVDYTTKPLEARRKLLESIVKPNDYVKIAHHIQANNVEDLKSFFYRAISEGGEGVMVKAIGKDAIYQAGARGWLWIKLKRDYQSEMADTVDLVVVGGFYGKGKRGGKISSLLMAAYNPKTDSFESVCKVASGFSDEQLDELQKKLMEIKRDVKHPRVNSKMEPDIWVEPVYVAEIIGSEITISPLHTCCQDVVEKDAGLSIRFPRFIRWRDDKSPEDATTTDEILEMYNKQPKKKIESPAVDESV
T3 sequence 2: T1 sequence 1
T3 sequence 3: T1 sequence 2
T3 sequence 4: T1 sequence 3

T4: DNA ligase from S. solfataricus (Lig), wild type (S. solfataricus, UniProt Q980T8 1-601)
T4 sequence: T3 sequence 1

T5: PCNA2 subunit of S. solfataricus PCNA (S. solfataricus, UniProt Q97Z84 1-245)
T5 sequence: T1 sequence 2

T6: PCNA1 subunit of S. solfataricus PCNA (S. solfataricus, UniProt P57766 1-249)
T6 sequence: T1 sequence 1

B1: fluorescently labeled Lig loop peptide (17 residues, PIP motif) (peptide)
peptide: KSKQQSTGILGFLGTTS
modifications: also: 6-FAM label, position not given here
B2: 47 bp 3'dideoxy nicked DNA (dsDNA)
DNA 1: GTATCCTCGTAGTGCAGATGCGTC
DNA 2: GTCGGACTGATTCGGTAGATCTG
DNA 3: CAGATCTACCGAATCAGTCCGACGACGCATCTGCACTACGAGGATAC
modifications: 3'-dideoxy terminus of upstream strand; 5'PO4 on downstream strand
B3: 47 bp nicked DNA, 5'-adenylated (AppDNA) (dsDNA)
DNA 1: GTATCCTCGTAGTGCAGATGCGTC
DNA 2: GTCGGACTGATTCGGTAGATCTG
DNA 3: B2 DNA 3
modifications: 5'-App (adenylated 5'PO4) on downstream strand; 3'OH at nick
B4: 47 bp ligatable nicked DNA (dsDNA)
DNA 1: GTATCCTCGTAGTGCAGATGCGTC
DNA 2: GTCGGACTGATTCGGTAGATCTG
DNA 3: B2 DNA 3
modifications: 5'PO4 on downstream strand; 3'OH at nick
B5: 47 bp end-joined duplex DNA (dsDNA)
DNA 1: GTATCCTCGTAGTGCAGATGCGTCGTCGGACTGATTCGGTAGATCTG
DNA 2: B2 DNA 3
B6: Lig 103/107 QI-AA mutant (enzyme, S. solfataricus)
chain: T3 sequence 1 with Q103A, I107A
B7: PCNA3 subunit of S. solfataricus PCNA (natural protein)
chain: T1 sequence 3

Tests used:
[1] = target: T1, PCNA_(1–2-3) heterotrimer of S. …; experiment: fluorescence polarisation
[2] = target: B7; experiment: fluorescence polarisation
[3] = target: T2, PCNA1–2 heterodimer of S. solfataricus; experiment: fluorescence polarisation
[4] = target: T3, DNA ligase (Lig);PCNA1-PCNA2-PCNA3 …; experiment: cryo-EM
[5] = target: T3, DNA ligase (Lig);PCNA1-PCNA2-PCNA3 …; experiment: cryo-EM; remark: listed apart in the source
[6] = target: T3, DNA ligase (Lig);PCNA1-PCNA2-PCNA3 …; experiment: gel filtration co-elution
[7] = target: T3, DNA ligase (Lig);PCNA1-PCNA2-PCNA3 …; experiment: cryo-EM; remark: listed apart in the source
[8] = target: T1, PCNA_(1–2-3) heterotrimer of S. …; experiment: SEC
[9] = target: T4, DNA ligase from S. solfataricus (Lig), …; experiment: negative stain electron microscopy
[10] = target: T5, PCNA2 subunit of S. solfataricus PCNA; experiment: cryo-EM structure
[11] = target: T6, PCNA1 subunit of S. solfataricus PCNA; experiment: cryo-EM structure

Binder: B1
Kd [1]: 13.1 ± 2.5 µM | Kd [2]: 32.5 ± 6.6 µM | Kd [3]: 177 ± 74.4 µM

Binder: B2
binding result [4]: binds

Binder: B3
binding result [5]: binds

Binder: B4
binding result [6]: binds

Binder: B5
binding result [7]: binds

Binder: B6
binding result [8]: binds

Binder: B7
binding result [9]: binds | binding result [10]: binds | binding result [11]: binds
